The values below come from patent publication US20240167008, “NOVEL CRISPR ENZYMES, METHODS, SYSTEMS AND USES THEREOF” (Beam Therapeutics Inc., published 2024).

This series addresses T1, ScoCas9 (human codon-optimized) (Streptococcus constellatus).
T1 chain: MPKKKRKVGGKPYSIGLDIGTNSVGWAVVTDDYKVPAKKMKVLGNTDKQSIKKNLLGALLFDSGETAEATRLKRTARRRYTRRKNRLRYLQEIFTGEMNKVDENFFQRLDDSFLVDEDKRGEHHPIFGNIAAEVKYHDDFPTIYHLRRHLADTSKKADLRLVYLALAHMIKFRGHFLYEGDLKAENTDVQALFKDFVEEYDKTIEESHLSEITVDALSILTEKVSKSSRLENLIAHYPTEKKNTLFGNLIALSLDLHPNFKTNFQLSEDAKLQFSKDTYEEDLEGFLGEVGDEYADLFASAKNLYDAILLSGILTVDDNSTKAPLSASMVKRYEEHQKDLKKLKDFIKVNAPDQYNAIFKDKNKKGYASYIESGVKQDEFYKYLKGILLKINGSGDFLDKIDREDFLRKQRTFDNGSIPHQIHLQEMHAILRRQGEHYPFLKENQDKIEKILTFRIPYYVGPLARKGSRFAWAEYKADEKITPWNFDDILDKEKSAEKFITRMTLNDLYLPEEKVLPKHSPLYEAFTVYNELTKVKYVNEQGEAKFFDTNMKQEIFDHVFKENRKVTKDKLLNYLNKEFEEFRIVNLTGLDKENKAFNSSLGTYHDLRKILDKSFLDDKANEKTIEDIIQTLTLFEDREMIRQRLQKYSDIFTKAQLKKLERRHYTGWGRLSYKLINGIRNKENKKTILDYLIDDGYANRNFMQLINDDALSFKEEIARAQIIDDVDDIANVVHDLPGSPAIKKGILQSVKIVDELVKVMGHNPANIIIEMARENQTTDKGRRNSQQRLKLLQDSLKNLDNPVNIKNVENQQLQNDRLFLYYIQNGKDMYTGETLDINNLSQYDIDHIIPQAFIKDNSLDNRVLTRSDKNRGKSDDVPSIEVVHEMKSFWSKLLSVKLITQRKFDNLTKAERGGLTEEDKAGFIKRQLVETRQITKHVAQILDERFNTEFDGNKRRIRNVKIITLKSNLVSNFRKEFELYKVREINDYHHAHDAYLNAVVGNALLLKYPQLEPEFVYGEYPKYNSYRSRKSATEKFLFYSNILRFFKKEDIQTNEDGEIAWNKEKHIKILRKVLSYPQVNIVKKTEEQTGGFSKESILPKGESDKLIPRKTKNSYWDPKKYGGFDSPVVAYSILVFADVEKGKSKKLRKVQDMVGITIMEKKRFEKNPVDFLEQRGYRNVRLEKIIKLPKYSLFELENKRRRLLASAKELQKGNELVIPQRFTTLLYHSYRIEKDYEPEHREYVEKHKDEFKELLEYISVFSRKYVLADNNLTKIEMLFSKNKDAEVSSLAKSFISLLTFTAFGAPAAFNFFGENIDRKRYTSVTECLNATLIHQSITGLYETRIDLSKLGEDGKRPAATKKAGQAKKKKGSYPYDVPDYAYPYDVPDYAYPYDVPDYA
The series can be described thus: cell_activity; PAM NGG; HEK293T. Particulars: tags: N-terminal and C-terminal NLS, 3xHA. The protocol: HEK293T cells were plated in a 96-well plate. Cells were transfected with expression vectors containing Cas9 and guide RNAs (Table 10), 24 hours after plating. Cells were harvested 72 hours post-transfection and total DNA was extracted.

B1: Sco guide 9 sgRNA ; guide 9 site (ssRNA ; dsDNA)
RNA: GUUGAAGAUGAAGCCCAGAGGUUUUAGAGCUGUGCUGUUUAAACAACACAGCAAGUUAAAAUAAGGCUUUGUCCGUACUCAAGCUUGCAAAAGCGUGCACCGAUUCGGUGCU
DNA 1: GTTGAAGATGAAGCCCAGAGCGG
DNA 2: CCGCTCTGGGCTTCATCTTCAAC
B1 had an activity above 30 % indel.

B2: Sco guide 2 sgRNA ; guide 2 site (ssRNA ; dsDNA)
RNA: GAAACAAUGAUAACAAGACCGUUUUAGAGCUGUGCUGUUUAAACAACACAGCAAGUUAAAAUAAGGCUUUGUCCGUACUCAAGCUUGCAAAAGCGUGCACCGAUUCGGUGCU
DNA 1: GAAACAATGATAACAAGACCTGG
DNA 2: CCAGGTCTTGTTATCATTGTTTC
For the molecule B2, the activity is above 30 % indel.

B3: Sco guide 11 sgRNA ; guide 11 site (ssRNA ; dsDNA)
RNA: UGCUGCACACAGCAGGCCUUGUUUUAGAGCUGUGCUGUUUAAACAACACAGCAAGUUAAAAUAAGGCUUUGUCCGUACUCAAGCUUGCAAAAGCGUGCACCGAUUCGGUGCU
DNA 1: TGCTGCACACAGCAGGCCTTTGG
DNA 2: CCAAAGGCCTGCTGTGTGCAGCA
B3 displayed an activity of around 2 % indel.
